# Bridge positions count the residues as written; N and C are the ends. Square brackets hold non-standard residues; d marks the D form. Primed or numbered codes have the meaning given here. hArg = N=C(N)NCCCC[C@H](N)C(=O)O; Hyp′ = 3-hydroxyproline
# B1: Compound 2 (peptide)
# peptide: Ac-TVFTSWEEYLDWVGSGCWNLKRIGSQGC-NH2
# modifications: disulfide 17-28
# SMILES: CC[C@H](C)[C@@H]1NC(=O)[C@H](CCCNC(=N)N)NC(=O)[C@H](CCCCN)NC(=O)[C@H](CC(C)C)NC(=O)[C@H](CC(N)=O)NC(=O)[C@H](Cc2c[nH]c3ccccc23)NC(=O)[C@@H](NC(=O)CNC(=O)[C@H](CO)NC(=O)CNC(=O)[C@@H](NC(=O)[C@H](Cc2c[nH]c3ccccc23)NC(=O)[C@H](CC(=O)O)NC(=O)[C@H](CC(C)C)NC(=O)[C@H](Cc2ccc(O)cc2)NC(=O)[C@H](CCC(=O)O)NC(=O)[C@H](CCC(=O)O)NC(=O)[C@H](Cc2c[nH]c3ccccc23)NC(=O)[C@H](CO)NC(=O)[C@@H](NC(=O)[C@H](Cc2ccccc2)NC(=O)[C@@H](NC(=O)[C@@H](NC(C)=O)[C@@H](C)O)C(C)C)[C@@H](C)O)C(C)C)CSSC[C@@H](C(N)=O)NC(=O)CNC(=O)[C@H](CCC(N)=O)NC(=O)[C@H](CO)NC(=O)CNC1=O
# notes: Disulfide C17-C28
# B2: Compound 227 (peptide)
# peptide: Ac-ESFPGWNLV[hArg]IGLLR-NH2
# SMILES: CC[C@H](C)[C@H](NC(=O)[C@H](CCCCNC(=N)N)NC(=O)[C@@H](NC(=O)[C@H](CC(C)C)NC(=O)[C@H](CC(N)=O)NC(=O)[C@H](Cc1c[nH]c2ccccc12)NC(=O)CNC(=O)[C@@H]1CCCN1C(=O)[C@H](Cc1ccccc1)NC(=O)[C@H](CO)NC(=O)[C@H](CCC(=O)O)NC(C)=O)C(C)C)C(=O)NCC(=O)N[C@@H](CC(C)C)C(=O)N[C@@H](CC(C)C)C(=O)N[C@@H](CCCNC(=N)N)C(N)=O
# B3: Compound 23 (peptide)
# peptide: Ac-SPCRVGYTPC-NH2
# modifications: disulfide 3-10
# SMILES: CC(=O)N[C@@H](CO)C(=O)N1CCC[C@H]1C(=O)N[C@H]1CSSC[C@@H](C(N)=O)NC(=O)[C@@H]2CCCN2C(=O)[C@H]([C@@H](C)O)NC(=O)[C@H](Cc2ccc(O)cc2)NC(=O)CNC(=O)[C@H](C(C)C)NC(=O)[C@H](CCCNC(=N)N)NC1=O
# notes: Two Cys
# B4: Compound 228 (peptide)
# peptide: Ac-SFAFPGWNLV[hArg]IGLLR-NH2
# SMILES: CC[C@H](C)[C@H](NC(=O)[C@H](CCCCNC(=N)N)NC(=O)[C@@H](NC(=O)[C@H](CC(C)C)NC(=O)[C@H](CC(N)=O)NC(=O)[C@H](Cc1c[nH]c2ccccc12)NC(=O)CNC(=O)[C@@H]1CCCN1C(=O)[C@H](Cc1ccccc1)NC(=O)[C@H](C)NC(=O)[C@H](Cc1ccccc1)NC(=O)[C@H](CO)NC(C)=O)C(C)C)C(=O)NCC(=O)N[C@@H](CC(C)C)C(=O)N[C@@H](CC(C)C)C(=O)N[C@@H](CCCNC(=N)N)C(N)=O
# How the values were obtained:
# PCSK9Δhelix [1] = target: T1, PCSK9Δhelix (human, UniProt Q8NBP7 31-152; Q8NBP7 168-692); assay: TR-FRET competition; competitor Ab20 binding to His-PCSK9Δhelix
# T1 construct: Made by TEV cleavage of human PCSK9 M1-Q692 with an engineered TEV site; The new N-terminus of the catalytic domain is S-A168; also called His-PCSK9Δhelix; PCSK9 lacking the P' helix
# [2] = target: T2, PCSK9 (proprotein convertase subtilisin/kexin type 9), His-tagged, full-length (human, UniProt Q8NBP7 31-692); assay: TR-FRET competition; competitor EGF(A)-Fc binding to His-PCSK9
# T2 construct: Captured by the His tag (SPR Methods 1 and 2), amine-coupled (Method 3), or His-tagged in TR-FRET; also called His-PCSK9
# [3] = target: T2, PCSK9 (proprotein convertase …); assay: SPR, Method 2 (Biacore T100, NTA capture, single cycle kinetics)
# PCSK9Δhelix [4] = target: T1, PCSK9Δhelix; assay: as above
# PCSK9Δhelix [5] = target: T3, PCSK9Δhelix (human, Chemically biotinylated in the phage ELISAs; the site is not given.); assay: phage competition ELISA against phage-displayed K9gvpep4 (ΦK9gvpep4)
# T3 construct: construct M1-Q692 with engineered TEV site, cleaved by TEV; also called His-PCSK9Δhelix; open groove PCSK9Δhelix
# [6] = target: T4, proprotein convertase subtilisin/kexin type 9 (PCSK9) (human, UniProt Q8NBP7 31-692); assay: cell-based or functional assay
# PCSK9Δhelix [7] = target: T3, PCSK9Δhelix; assay: phage competition ELISA against phage-displayed Pep2-8 (Φpep2-8)
# PCSK9Δhelix [8] = target: T3, PCSK9Δhelix; assay: Ab20 TR-FRET competition and SPR
# [9] = target: T4, proprotein convertase subtilisin/kexin …; assay: TR-FRET competition (Table 11)
# PCSK9Δhelix [10] = target: T3, PCSK9Δhelix; assay: SPR
# [11] = target: T5, His-tagged, full-length human PCSK9 (proprotein convertase subtilisin/kexin type 9) (human, UniProt A8T644 31-152; Q8NBP7 153-692); assay: TR-FRET competition; His-PCSK9 with EGF(A)-Fc as competitor ligand
# T5 construct: also called His-PCSK9; C-terminal (His)8-tagged PCSK9
# [12] = target: T6, PCSK9Δhelix (human PCSK9 lacking the P' helix, His-tagged) (human, UniProt Q8NBP7 31-152; Q8NBP7 168-692); assay: TR-FRET competition; His-PCSK9Δhelix with Ab20 as competitor ligand
# T6 construct: Construct M1-Q692 with an engineered TEV site (Y166 and R167 deleted, ENLYFQS inserted between R165 and A168); also called His-PCSK9Δhelix; C-terminal (His)8-tagged PCSK9Δhelix
# [13] = target: T4, proprotein convertase subtilisin/kexin …; assay: SPR
# T4 sequence (Q8NBP7 other isoform, or with tags, fused parts or gaps limits assumed): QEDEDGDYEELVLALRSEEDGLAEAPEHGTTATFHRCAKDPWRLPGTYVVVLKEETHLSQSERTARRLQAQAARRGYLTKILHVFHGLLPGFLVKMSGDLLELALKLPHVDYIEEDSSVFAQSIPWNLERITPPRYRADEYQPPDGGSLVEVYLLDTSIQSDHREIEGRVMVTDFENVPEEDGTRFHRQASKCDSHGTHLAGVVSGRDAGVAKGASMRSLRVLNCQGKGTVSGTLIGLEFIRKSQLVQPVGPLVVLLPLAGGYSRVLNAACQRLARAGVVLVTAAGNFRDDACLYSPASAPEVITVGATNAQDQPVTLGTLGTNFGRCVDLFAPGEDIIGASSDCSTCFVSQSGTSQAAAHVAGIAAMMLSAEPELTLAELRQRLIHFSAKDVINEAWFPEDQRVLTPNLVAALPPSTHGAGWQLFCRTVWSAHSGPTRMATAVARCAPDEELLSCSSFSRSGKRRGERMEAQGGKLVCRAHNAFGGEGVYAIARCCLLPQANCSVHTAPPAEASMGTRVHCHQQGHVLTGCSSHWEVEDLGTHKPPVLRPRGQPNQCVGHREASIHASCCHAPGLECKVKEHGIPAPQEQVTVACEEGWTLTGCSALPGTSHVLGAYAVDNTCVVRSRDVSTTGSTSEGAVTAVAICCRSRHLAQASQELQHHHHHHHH
# T3 sequence (prodomain, as listed by the source mutant limits assumed, chain 1 of 2): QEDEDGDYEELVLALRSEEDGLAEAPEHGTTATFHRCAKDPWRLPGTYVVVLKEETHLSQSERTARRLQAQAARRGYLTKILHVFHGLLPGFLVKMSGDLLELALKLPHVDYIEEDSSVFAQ
# T3 sequence (chain, as listed by the source mutant limits assumed, chain 2 of 2): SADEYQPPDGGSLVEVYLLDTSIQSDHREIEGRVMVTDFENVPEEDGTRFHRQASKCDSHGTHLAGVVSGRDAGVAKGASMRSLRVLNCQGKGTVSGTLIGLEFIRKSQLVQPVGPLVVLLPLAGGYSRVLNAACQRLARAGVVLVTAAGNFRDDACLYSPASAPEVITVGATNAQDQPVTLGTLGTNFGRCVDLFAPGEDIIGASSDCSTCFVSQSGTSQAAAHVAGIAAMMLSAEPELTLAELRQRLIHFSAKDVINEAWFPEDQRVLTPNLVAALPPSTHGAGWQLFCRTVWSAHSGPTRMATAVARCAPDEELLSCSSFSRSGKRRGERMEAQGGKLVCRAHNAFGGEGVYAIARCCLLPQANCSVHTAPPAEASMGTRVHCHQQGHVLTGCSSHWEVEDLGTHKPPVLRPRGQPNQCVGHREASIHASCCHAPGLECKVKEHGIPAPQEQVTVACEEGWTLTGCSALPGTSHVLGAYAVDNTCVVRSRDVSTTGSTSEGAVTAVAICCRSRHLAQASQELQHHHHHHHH
# T1 sequence (Q8NBP7 31-152, stated change not applied, chain 1 of 2): as the sequence (prodomain, as listed by the source mutant limits assumed, chain 1 of 2) above
# T1 sequence (Q8NBP7 other isoform, or with tags, fused parts or gaps mutant, chain 2 of 2): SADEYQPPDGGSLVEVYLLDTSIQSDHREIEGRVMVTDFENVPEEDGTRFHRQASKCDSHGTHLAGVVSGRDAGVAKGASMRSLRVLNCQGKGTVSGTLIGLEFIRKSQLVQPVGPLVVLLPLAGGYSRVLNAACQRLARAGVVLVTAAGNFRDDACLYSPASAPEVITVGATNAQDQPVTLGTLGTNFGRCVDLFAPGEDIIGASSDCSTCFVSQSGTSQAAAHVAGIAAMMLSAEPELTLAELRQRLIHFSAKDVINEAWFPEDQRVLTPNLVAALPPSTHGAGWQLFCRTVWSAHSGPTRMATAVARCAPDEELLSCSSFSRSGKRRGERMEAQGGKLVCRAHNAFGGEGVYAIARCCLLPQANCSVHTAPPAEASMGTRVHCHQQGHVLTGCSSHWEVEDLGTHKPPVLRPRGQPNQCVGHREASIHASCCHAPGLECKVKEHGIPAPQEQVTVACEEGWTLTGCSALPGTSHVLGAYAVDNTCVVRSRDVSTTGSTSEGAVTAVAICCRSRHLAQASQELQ
# T2 sequence (Q8NBP7 31-692 limits assumed): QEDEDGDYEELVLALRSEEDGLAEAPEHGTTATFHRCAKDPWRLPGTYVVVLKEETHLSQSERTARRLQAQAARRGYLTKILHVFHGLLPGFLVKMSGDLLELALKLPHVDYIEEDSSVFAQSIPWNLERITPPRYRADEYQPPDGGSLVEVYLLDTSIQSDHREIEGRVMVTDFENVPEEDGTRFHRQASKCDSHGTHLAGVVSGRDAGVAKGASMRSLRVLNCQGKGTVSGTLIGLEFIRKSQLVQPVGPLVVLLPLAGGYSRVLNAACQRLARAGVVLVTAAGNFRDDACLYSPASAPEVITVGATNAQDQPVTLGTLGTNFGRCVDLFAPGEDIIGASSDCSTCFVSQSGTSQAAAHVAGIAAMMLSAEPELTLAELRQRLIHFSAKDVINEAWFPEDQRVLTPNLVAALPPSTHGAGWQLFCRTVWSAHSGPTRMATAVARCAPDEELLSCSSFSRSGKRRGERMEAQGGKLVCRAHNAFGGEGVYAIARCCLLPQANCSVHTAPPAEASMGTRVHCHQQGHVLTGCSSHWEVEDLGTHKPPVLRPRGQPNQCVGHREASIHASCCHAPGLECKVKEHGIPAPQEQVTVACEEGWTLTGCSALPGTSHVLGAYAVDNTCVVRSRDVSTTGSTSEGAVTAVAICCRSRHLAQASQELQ
# T6 sequence (Q8NBP7 31-152, stated change not applied, chain 1 of 2): as the sequence (prodomain, as listed by the source mutant limits assumed, chain 1 of 2) above
# T6 sequence (Q8NBP7 other isoform, or with tags, fused parts or gaps mutant, chain 2 of 2): as the sequence (chain, as listed by the source mutant limits assumed, chain 2 of 2) above
# T5 sequence (A8T644 31-152, chain 1 of 2): as the sequence (prodomain, as listed by the source mutant limits assumed, chain 1 of 2) above
# T5 sequence (A8T644 other isoform, or with tags, fused parts or gaps, chain 2 of 2): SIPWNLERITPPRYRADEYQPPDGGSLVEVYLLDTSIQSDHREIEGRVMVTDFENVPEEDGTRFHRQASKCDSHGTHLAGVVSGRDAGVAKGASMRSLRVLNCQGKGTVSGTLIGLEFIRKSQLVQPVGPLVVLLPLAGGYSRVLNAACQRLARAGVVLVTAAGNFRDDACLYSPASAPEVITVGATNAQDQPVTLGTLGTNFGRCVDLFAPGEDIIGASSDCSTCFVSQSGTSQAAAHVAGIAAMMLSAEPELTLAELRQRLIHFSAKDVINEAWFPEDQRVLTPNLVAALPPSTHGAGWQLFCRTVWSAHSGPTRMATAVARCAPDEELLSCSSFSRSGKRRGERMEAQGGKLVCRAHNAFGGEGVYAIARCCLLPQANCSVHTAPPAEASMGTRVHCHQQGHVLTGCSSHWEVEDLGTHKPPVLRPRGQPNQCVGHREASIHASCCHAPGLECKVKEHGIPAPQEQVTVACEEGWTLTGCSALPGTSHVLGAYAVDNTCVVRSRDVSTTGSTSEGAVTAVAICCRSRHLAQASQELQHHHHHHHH
binder,measurement,setting,value
B1,IC50,PCSK9Δhelix [1],4 nM
same,IC50,[2],110 nM
same,Kd,[3],30.3 nM
same,Kd,PCSK9Δhelix [4],1.87 nM
"Ac-TVFTSWEEYLDWVGSGCRLPWNLQRIGLPC-NH2 (disulfide 17-30 (inferred), also called Pep2-8p4; Pep2-8_K9gvpep4) [Compound 19]",IC50,PCSK9Δhelix [5],5.65 nM
same,concentration restoring LDLR levels on HepG2 cells to 50% (EC50),[6],~500 nM
same,IC50,PCSK9Δhelix [7],2.92 nM
Ac-WNLVRIGLLR-NH2 [Compound 53],fold reduction of binding affinity on elimination of Pro4,PCSK9Δhelix [8],10 fold
B2,fold lower inhibitory activity against Compound 229,[9],~3 fold
Ac-WNLV[hArg]IGLLR-NH2 [Compound 192],fold improvement of binding affinity by homo-arginine substitution (against Compound 53),PCSK9Δhelix [10],14 fold
"Ac-SGCFI[Hyp′]WNLQRIGLLC-NH2 (disulfide 3-16 (inferred), Has two Cys (positions 3 and 16)) [Compound 242: Ac-SG-CFI(Hyp)WNLQRIGLLC-NH2]",IC50,[11],≥ 50000 nM
same,IC50,[12],31000 nM
B3,Kd,[3],5740 nM
same,Kd,PCSK9Δhelix [4],754 nM
B4,Kd,[13],2800 nM

# — patent publication US20200283478A1 (Genentech, published 2020)
